The target of the data set is rLdACT (Leishmania actin) (Leishmania donovani, UniProt Q86M27 1-376). Put plainly: EMSA.

This is an account of results in paper PMC2879525.

B1: 30 bp DNA probe (dsDNA)
DNA 1: GCGGCCGCATGGCTGACAACGAGCAGAGCT
DNA 2: AGCTCTGCTCGTTGTCAGCCATGCGGCCGC
For the molecule B1, the binding result was “binds”.
